Measured values reported in patent US20130052132A1, “Method for Producing Radioactively Labeled Polypeptide” (priority 2011, published 2013).
* marks the point of attachment. Benzoyl(3-I) = O=C(c1cccc(I)c1)*

B1: polypeptide represented by the formula (11) (peptide)
peptide: Ac-DLSK(Benzoyl(3-I))QMEEEAVRLFIEWLRNGGPSSGAPPPS-NH2
SMILES: CC[C@H](C)[C@H](NC(=O)[C@H](Cc1ccccc1)NC(=O)[C@H](CC(C)C)NC(=O)[C@H](CCCNC(=N)N)NC(=O)[C@@H](NC(=O)[C@H](C)NC(=O)[C@H](CCC(=O)O)NC(=O)[C@H](CCC(=O)O)NC(=O)[C@H](CCC(=O)O)NC(=O)[C@H](CCSC)NC(=O)[C@H](CCC(N)=O)NC(=O)[C@H](CCCCNC(=O)c1cccc(I)c1)NC(=O)[C@H](CO)NC(=O)[C@H](CC(C)C)NC(=O)[C@H](CC(=O)O)NC(C)=O)C(C)C)C(=O)N[C@@H](CCC(=O)O)C(=O)N[C@@H](Cc1c[nH]c2ccccc12)C(=O)N[C@@H](CC(C)C)C(=O)N[C@@H](CCCNC(=N)N)C(=O)N[C@@H](CC(N)=O)C(=O)NCC(=O)NCC(=O)N1CCC[C@H]1C(=O)N[C@@H](CO)C(=O)N[C@@H](CO)C(=O)NCC(=O)N[C@@H](C)C(=O)N1CCC[C@H]1C(=O)N1CCC[C@H]1C(=O)N1CCC[C@H]1C(=O)N[C@@H](CO)C(N)=O
notes: Non-radioactive exendin(9-39) derivative with Arg in place of Lys at position 19; Formula (11) itself is a drawing; also called cold probe

Key:
[1] = design: species or system ddY mice; conditions: mouse
Protocol: After 5 minutes, 15 minutes, 30 minutes, 60 minutes, and 120 minutes from the administration, organs were dissected out of the mice (n=5). The weight and radioactivity of each organ were determined, and an accumulation amount (% dose/g) of the polypeptide of Example 1 was calculated from the radioactivity per unit weight. FIG. 1 is a graph showing, by way of example, how the accumulation of the polypeptide of Example 1 in each organ changed over time. Table 2 provides the ratio of pancreas/liver (accumulation amount in pancreas/accumulation amount in liver), the ratio of pancreas/kidney (accumulation amount in pancreas/accumulation amount in kidney), and the ratio of pancreas/blood (accumulation amount in pancreas/accumulation amount in blood) based on the accumulation amount of the polypeptide of Example 1 in each organ. The polypeptide of Example 2 (0.51 μCi) was administered to unanesthetized 6-week-old ddY mice (male, weight: 30 g) by intravenous injection (through the tail vein). After 5 minutes, 15 minutes, 30 minutes, 60 minutes, and 120 minutes from the administration, organs were dissected out of the mice (n=5). The weight and radioactivity of each organ were determined, and an accumulation amount (% dose/g) of the polypeptide of Example 2 was calculated from the radioactivity per unit weight. FIG. 3 is a graph showing, by way of example, how the accumulation of the polypeptide of Example 2 in each organ changed over time. Table 4 provides the ratio of pancreas/liver, the ratio of pancreas/kidney, and the ratio of pancreas/blood based on the accumulation amount of the polypeptide of Example 2 in each organ. A biodistribution experiment was performed by following the same procedure as in Example 1 except that the polypeptide of Example 4 (0.61 μCi) was used in place of the polypeptide of Example 1. FIG. 6 is a graph showing, by way of example, how the accumulation of the polypeptide of Example 4 in each organ changed over time. […]

[2] = molecular target: T1, GLP-1R of the pancreatic β-cells (Mus musculus, UniProt O35659); assay: Two-dimensional imaging analysis of pancreas sections (fluorescence and autoradiography); type: in vivo, MIP-GFP mouse; conditions: MIP-GFP mice
T1 construct: the pancreas was dissected out of the mouse; from tissue; host or cells: pancreas sections of MIP-GFP mice after intravenous dosing
T1 sequence (O35659 22-463): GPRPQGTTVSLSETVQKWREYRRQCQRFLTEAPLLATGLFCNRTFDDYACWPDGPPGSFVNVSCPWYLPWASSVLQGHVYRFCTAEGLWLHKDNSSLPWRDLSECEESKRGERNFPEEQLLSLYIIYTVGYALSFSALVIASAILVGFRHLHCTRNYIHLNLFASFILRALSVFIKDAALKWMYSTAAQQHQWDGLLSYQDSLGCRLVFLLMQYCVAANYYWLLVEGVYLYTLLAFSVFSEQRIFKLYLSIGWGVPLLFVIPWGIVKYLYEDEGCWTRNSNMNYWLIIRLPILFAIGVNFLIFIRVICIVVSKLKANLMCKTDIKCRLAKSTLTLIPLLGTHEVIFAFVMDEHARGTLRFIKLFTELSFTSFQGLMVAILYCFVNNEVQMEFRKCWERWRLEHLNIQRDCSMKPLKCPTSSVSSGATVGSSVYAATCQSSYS
Protocol: The polypeptide of Example 1 (5 μCi/100 μl) was administered to an unanesthetized MIP-GFP mouse (male, weight: 20 g) by intravenous injection, and after 30 minutes and 60 minutes from the administration, the pancreas was dissected out of the mouse (n=1). Sections were cut out of the dissected pancreas, and each section was placed on a slide glass, covered with a cover glass. The fluorescence and radioactivity (autoradiography) of each section were determined using an image analyzer (trade name: Typhoon 9410, manufactured by GE Health Care Inc.) (exposure time: 18 hours). The exemplary results are shown in lanes 1, 4 and 5 of FIG. 2. […] After 30 minutes from the preliminary administration, the polypeptide of Example 1 (5 μCi/100 μl) was administered to the mice by intravenous injection, and after 30 minutes and 60 minutes from the administration of the polypeptide, the pancreases were dissected out of the mice (n=2). Sections were cut out of the dissected pancreases, and the fluorescence and radioactivity of each section were determined in the same manner as above. […] FIG. 4 illustrates exemplary results of the imaging analysis of pancreas sections of MIP-GFP mice to which the polypeptide of Example 2 was administered. The images on the upper row show a fluorescence signal and those on the lower row show a radioactivity signal of the polypeptide represented by the formula (20). […]

[3] = molecular target: T2, GLP-1R (glucagon-like peptide-1 receptor) of mouse pancreatic islet cells (mouse, UniProt O35659 22-463); assay: displacement of [125I]Bolton-Hunter labeled exendin(9-39) from mouse pancreatic islet cells, filter separation, gamma counter
T2 construct: whole, on cells; also called GLP-1R of pancreatic beta-cells
T2 sequence: T1 sequence (O35659 22-463)

Molecule | deiodization metabolism in vivo [1] | accumulation in the pancreas ([1]; in vivo) | ratio of pancreas/kidney in the accumulation amount ([1]; in vivo) | localization of the radioactivity signal in pancreas sections ([2]; 30 and 60 minutes after intravenous injection, compared with GFP signal) | radioactivity signal in pancreas sections after blocking the receptors ([2]; preliminary administration of cold probe non-labeled exendin(9-39) 50 μg 30 minutes before) | IC50 [3] [nM]
Example 1 (DLSKQMEEEAVRLFIEWLRNGGPSSGAPPPS; A polypeptide produced in Production Example 1) | not subjected to deiodization metabolism in vivo | exceeding 15 % dose/g | ≥ 1 | substantially consistent with that of the GFP signal | hardly detected | 
B1 |  |  |  |  |  | 32.1
